T1: TNFR1 (Homo sapiens, UniProt P19438)
T1 chain: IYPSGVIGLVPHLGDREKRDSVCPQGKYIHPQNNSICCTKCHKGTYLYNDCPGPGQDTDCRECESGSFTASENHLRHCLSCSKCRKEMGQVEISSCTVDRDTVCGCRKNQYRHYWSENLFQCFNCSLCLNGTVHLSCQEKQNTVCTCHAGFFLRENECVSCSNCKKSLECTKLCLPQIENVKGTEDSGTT


Biological target: T1, TNFR1
Assay: yeast display SC50

Binder | apparent Kd (screen)
R38C (designed binder) SMEEEVEKAAKEYEKKKKEAIEKHLEKLKAKDKEAAECFLKELEEAAKEYAKDEAKTMSEEEAKRRAKKYKEKVLLSELSEEEQKEIKEAEEKLVRTILKYVEEAAK | 2.25 nM
E81M (designed binder) SMEEEVEKAAKEYEKKKKEAIEKHLEKLKAKDKEAAERFLKELEEAAKEYAKDEAKTMSEEEAKRRAKKYKEKVLLSELSMEEQKEIKEAEEKLVRTILKYVEEAAK | 0.539 nM
E4Q (designed binder) SMEQEVEKAAKEYEKKKKEAIEKHLEKLKAKDKEAAERFLKELEEAAKEYAKDEAKTMSEEEAKRRAKKYKEKVLLSELSEEEQKEIKEAEEKLVRTILKYVEEAAK | 0.446 nM
L25K (designed binder) SMEEEVEKAAKEYEKKKKEAIEKHKEKLKAKDKEAAERFLKELEEAAKEYAKDEAKTMSEEEAKRRAKKYKEKVLLSELSEEEQKEIKEAEEKLVRTILKYVEEAAK | 1.4 nM
E14L (designed binder) SMEEEVEKAAKEYLKKKKEAIEKHLEKLKAKDKEAAERFLKELEEAAKEYAKDEAKTMSEEEAKRRAKKYKEKVLLSELSEEEQKEIKEAEEKLVRTILKYVEEAAK | 7.07 nM
E72N (designed binder) SMEEEVEKAAKEYEKKKKEAIEKHLEKLKAKDKEAAERFLKELEEAAKEYAKDEAKTMSEEEAKRRAKKYKNKVLLSELSEEEQKEIKEAEEKLVRTILKYVEEAAK | 1.27 nM
E3V (designed binder) SMVEEVEKAAKEYEKKKKEAIEKHLEKLKAKDKEAAERFLKELEEAAKEYAKDEAKTMSEEEAKRRAKKYKEKVLLSELSEEEQKEIKEAEEKLVRTILKYVEEAAK | 1.69 nM
T97M (designed binder) SMEEEVEKAAKEYEKKKKEAIEKHLEKLKAKDKEAAERFLKELEEAAKEYAKDEAKTMSEEEAKRRAKKYKEKVLLSELSEEEQKEIKEAEEKLVRMILKYVEEAAK | 0.539 nM
K52I (designed binder) SMEEEVEKAAKEYEKKKKEAIEKHLEKLKAKDKEAAERFLKELEEAAKEYAIDEAKTMSEEEAKRRAKKYKEKVLLSELSEEEQKEIKEAEEKLVRTILKYVEEAAK | 0.446 nM
S80L (designed binder) SMEEEVEKAAKEYEKKKKEAIEKHLEKLKAKDKEAAERFLKELEEAAKEYAKDEAKTMSEEEAKRRAKKYKEKVLLSELLEEEQKEIKEAEEKLVRTILKYVEEAAK | 0.539 nM
Q84C (designed binder) SMEEEVEKAAKEYEKKKKEAIEKHLEKLKAKDKEAAERFLKELEEAAKEYAKDEAKTMSEEEAKRRAKKYKEKVLLSELSEEECKEIKEAEEKLVRTILKYVEEAAK | 4.83 nM
T97F (designed binder) SMEEEVEKAAKEYEKKKKEAIEKHLEKLKAKDKEAAERFLKELEEAAKEYAKDEAKTMSEEEAKRRAKKYKEKVLLSELSEEEQKEIKEAEEKLVRFILKYVEEAAK | 0.405 nM
K107Q (designed binder) SMEEEVEKAAKEYEKKKKEAIEKHLEKLKAKDKEAAERFLKELEEAAKEYAKDEAKTMSEEEAKRRAKKYKEKVLLSELSEEEQKEIKEAEEKLVRTILKYVEEAAQ | 1.16 nM
S80M (designed binder) SMEEEVEKAAKEYEKKKKEAIEKHLEKLKAKDKEAAERFLKELEEAAKEYAKDEAKTMSEEEAKRRAKKYKEKVLLSELMEEEQKEIKEAEEKLVRTILKYVEEAAK | 1.16 nM
L76Q (designed binder) SMEEEVEKAAKEYEKKKKEAIEKHLEKLKAKDKEAAERFLKELEEAAKEYAKDEAKTMSEEEAKRRAKKYKEKVLQSELSEEEQKEIKEAEEKLVRTILKYVEEAAK | 1.86 nM
E86L (designed binder) SMEEEVEKAAKEYEKKKKEAIEKHLEKLKAKDKEAAERFLKELEEAAKEYAKDEAKTMSEEEAKRRAKKYKEKVLLSELSEEEQKLIKEAEEKLVRTILKYVEEAAK | 1.4 nM
T97R (designed binder) SMEEEVEKAAKEYEKKKKEAIEKHLEKLKAKDKEAAERFLKELEEAAKEYAKDEAKTMSEEEAKRRAKKYKEKVLLSELSEEEQKEIKEAEEKLVRRILKYVEEAAK | 0.49 nM
I21G (designed binder) SMEEEVEKAAKEYEKKKKEAGEKHLEKLKAKDKEAAERFLKELEEAAKEYAKDEAKTMSEEEAKRRAKKYKEKVLLSELSEEEQKEIKEAEEKLVRTILKYVEEAAK | 0.49 nM

Binder | apparent Kd (screen)
R65M (designed binder) SMEEEVEKAAKEYEKKKKEAIEKHLEKLKAKDKEAAERFLKELEEAAKEYAKDEAKTMSEEEAKMRAKKYKEKVLLSELSEEEQKEIKEAEEKLVRTILKYVEEAAK | 0.956 nM
K100D (designed binder) SMEEEVEKAAKEYEKKKKEAIEKHLEKLKAKDKEAAERFLKELEEAAKEYAKDEAKTMSEEEAKRRAKKYKEKVLLSELSEEEQKEIKEAEEKLVRTILDYVEEAAK | 2.48 nM
K48H (designed binder) SMEEEVEKAAKEYEKKKKEAIEKHLEKLKAKDKEAAERFLKELEEAAHEYAKDEAKTMSEEEAKRRAKKYKEKVLLSELSEEEQKEIKEAEEKLVRTILKYVEEAAK | 0.718 nM
A90N (designed binder) SMEEEVEKAAKEYEKKKKEAIEKHLEKLKAKDKEAAERFLKELEEAAKEYAKDEAKTMSEEEAKRRAKKYKEKVLLSELSEEEQKEIKENEEKLVRTILKYVEEAAK | 0.446 nM
R65C (designed binder) SMEEEVEKAAKEYEKKKKEAIEKHLEKLKAKDKEAAERFLKELEEAAKEYAKDEAKTMSEEEAKCRAKKYKEKVLLSELSEEEQKEIKEAEEKLVRTILKYVEEAAK | 6.43 nM
E49P (designed binder) SMEEEVEKAAKEYEKKKKEAIEKHLEKLKAKDKEAAERFLKELEEAAKPYAKDEAKTMSEEEAKRRAKKYKEKVLLSELSEEEQKEIKEAEEKLVRTILKYVEEAAK | 4.39 nM
E37L (designed binder) SMEEEVEKAAKEYEKKKKEAIEKHLEKLKAKDKEAALRFLKELEEAAKEYAKDEAKTMSEEEAKRRAKKYKEKVLLSELSEEEQKEIKEAEEKLVRTILKYVEEAAK | 0.869 nM
E12S (designed binder) SMEEEVEKAAKSYEKKKKEAIEKHLEKLKAKDKEAAERFLKELEEAAKEYAKDEAKTMSEEEAKRRAKKYKEKVLLSELSEEEQKEIKEAEEKLVRTILKYVEEAAK | 0.446 nM
L75P (designed binder) SMEEEVEKAAKEYEKKKKEAIEKHLEKLKAKDKEAAERFLKELEEAAKEYAKDEAKTMSEEEAKRRAKKYKEKVPLSELSEEEQKEIKEAEEKLVRTILKYVEEAAK | 3.99 nM
E92R (designed binder) SMEEEVEKAAKEYEKKKKEAIEKHLEKLKAKDKEAAERFLKELEEAAKEYAKDEAKTMSEEEAKRRAKKYKEKVLLSELSEEEQKEIKEAERKLVRTILKYVEEAAK | 11.4 nM
E42S (designed binder) SMEEEVEKAAKEYEKKKKEAIEKHLEKLKAKDKEAAERFLKSLEEAAKEYAKDEAKTMSEEEAKRRAKKYKEKVLLSELSEEEQKEIKEAEEKLVRTILKYVEEAAK | 7.78 nM
K93E (designed binder) SMEEEVEKAAKEYEKKKKEAIEKHLEKLKAKDKEAAERFLKELEEAAKEYAKDEAKTMSEEEAKRRAKKYKEKVLLSELSEEEQKEIKEAEEELVRTILKYVEEAAK | 0.956 nM
K41T (designed binder) SMEEEVEKAAKEYEKKKKEAIEKHLEKLKAKDKEAAERFLTELEEAAKEYAKDEAKTMSEEEAKRRAKKYKEKVLLSELSEEEQKEIKEAEEKLVRTILKYVEEAAK | 0.956 nM
E103L (designed binder) SMEEEVEKAAKEYEKKKKEAIEKHLEKLKAKDKEAAERFLKELEEAAKEYAKDEAKTMSEEEAKRRAKKYKEKVLLSELSEEEQKEIKEAEEKLVRTILKYVLEAAK | 3 nM
K15N (designed binder) SMEEEVEKAAKEYENKKKEAIEKHLEKLKAKDKEAAERFLKELEEAAKEYAKDEAKTMSEEEAKRRAKKYKEKVLLSELSEEEQKEIKEAEEKLVRTILKYVEEAAK | 0.539 nM
A30V (designed binder) SMEEEVEKAAKEYEKKKKEAIEKHLEKLKVKDKEAAERFLKELEEAAKEYAKDEAKTMSEEEAKRRAKKYKEKVLLSELSEEEQKEIKEAEEKLVRTILKYVEEAAK | 0.869 nM
V102R (designed binder) SMEEEVEKAAKEYEKKKKEAIEKHLEKLKAKDKEAAERFLKELEEAAKEYAKDEAKTMSEEEAKRRAKKYKEKVLLSELSEEEQKEIKEAEEKLVRTILKYREEAAK | 2.25 nM
